Reference: US20220098305A1

Each binder was assayed against human CEA (hu N(A2-B2)A-avi-His B) (human) (assay: SPR (Biacore T200), hu N(A2-B2)A-avi-His B immobilised, Fab as analyte, 1:1 Langmuir fit).
Sequence of human CEA (hu N(A2-B2)A-avi-His B) (human) (P06731 whole entry): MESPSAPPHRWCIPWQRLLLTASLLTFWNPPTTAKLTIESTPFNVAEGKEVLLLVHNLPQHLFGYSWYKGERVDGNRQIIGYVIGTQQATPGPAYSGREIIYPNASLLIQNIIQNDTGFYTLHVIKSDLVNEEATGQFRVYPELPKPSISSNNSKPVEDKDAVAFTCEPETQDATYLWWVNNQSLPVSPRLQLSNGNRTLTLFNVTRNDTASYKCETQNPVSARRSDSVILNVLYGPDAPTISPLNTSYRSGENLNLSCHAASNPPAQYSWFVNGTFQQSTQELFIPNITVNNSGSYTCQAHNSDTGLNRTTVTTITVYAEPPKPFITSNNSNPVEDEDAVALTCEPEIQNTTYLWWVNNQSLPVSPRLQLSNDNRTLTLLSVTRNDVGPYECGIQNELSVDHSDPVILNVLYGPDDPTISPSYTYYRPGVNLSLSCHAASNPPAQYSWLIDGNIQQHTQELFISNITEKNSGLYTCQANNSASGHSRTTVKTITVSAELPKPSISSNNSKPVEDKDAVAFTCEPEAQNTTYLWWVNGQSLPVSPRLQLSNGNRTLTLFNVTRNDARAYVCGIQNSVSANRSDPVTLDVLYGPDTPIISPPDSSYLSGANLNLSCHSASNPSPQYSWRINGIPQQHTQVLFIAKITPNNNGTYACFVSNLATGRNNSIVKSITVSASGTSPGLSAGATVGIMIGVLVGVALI

Binder | Kd [nM]
P1AE4135, Fab derived from P1AE2164 (Fab, V domains shown) VH: EVQLLESGGGLVQPGGSLRLSCAASGFTFTDYYMNWVRQAPGKGLEWLGFIGNKANGYTTEYSASVKGRFTISRDKSKNTLYLQMNSLRAEDTATYYCTRDRGLRFYFDYWGQGTTVTVSS VL: QTVLTQSPATLSLSPGERATLSCRASSSVTYIHWYQQKPGSSPKSWIYATSNLASGIPARFSGSGSGTDYTLTISSLEPEDFAVYYCQHWSSKPPTFGQGTKLEIK | 1.7
P1AE4140, Fab derived from P1AE2177 (Fab, V domains shown) VH: EVQLLESGGGLVQPGGSLRLSCAASGFTFTDYYMNWVRQAPGKGLEWVGFIGNKANGYTTEYSASVKGRFTISRDNSKNTLYLQMNSLRAEDTAVYYCTRDRGLRFYFDYWGQGTTVTVSS VL: EIVLTQSPATLSLSPGERATLSCRASSSVTYIHWYQQKPGQAPRSWIYATSNLASGIPARFSGSGSGTDFTLTISSLEPEDFAVYYCQHWSSKPPTFGQGTKLEIK | 7.62
P1AE4143, Fab derived from P1AE2182 (Fab, V domains shown) VH: EVQLLESGGGLVQPGGSLRLSCAASGFTFTDYYMNWVRQAPGKGLEWVGFIGNKANGYTTEYSASVKGRFTISRDKSKNTLYLQMNSLRAEDTAVYYCARDRGLRFYFDYWGQGTTVTVSS VL: EIVLTQSPATLSLSPGERATLSCRASSSVTYIHWYQQKPGQAPRSWIYATSNLASGIPARFSGSGSGTDFTLTISSLEPEDFAVYYCQHWSSKPPTFGQGTKLEIK | 2.92
P1AE4138, Fab derived from P1AE2167 (Fab, V domains shown) VH: EVQLLESGGGLVQPGGSLRLSCAASGFTFTDYYMNWVRQAPGKGLEWLGFIGNKANGYTTEYSASVKGRFTISRDKSKNTLYLQMNSLRAEDTATYYCTRDRGLRFYFDYWGQGTTVTVSS VL: EIVLTQSPATLSLSPGERATLSCRASSSVTYIHWYQQKPGQAPRSWIYATSNLASGIPARFSGSGSGTDFTLTISSLEPEDFAVYYCQHWSSKPPTFGQGTKLEIK | 1.47
P1AE4136, Fab derived from P1AE2165 (Fab, V domains shown) VH: EVQLLESGGGLVQPGGSLRLSCAASGFTFTDYYMNWVRQAPGKGLEWLGFIGNKANGYTTEYSASVKGRFTISRDKSKNTLYLQMNSLRAEDTATYYCTRDRGLRFYFDYWGQGTTVTVSS VL: QTVLTQSPATLSLSPGERATLSCRASSSVTYIHWYQQKPGQAPRLLIYATSNLASGIPARFSGSGSGTDFTLTISSLEPEDFAVYYCQHWSSKPPTFGQGTKLEIK | 1.25
P1AE4142, Fab derived from P1AE2181 (Fab, V domains shown) VH: EVQLLESGGGLVQPGGSLRLSCAASGFTFTDYYMNWVRQAPGKGLEWVGFIGNKANGYTTEYSASVKGRFTISRDKSKNTLYLQMNSLRAEDTAVYYCARDRGLRFYFDYWGQGTTVTVSS VL: EIVLTQSPATLSLSPGERATLSCRASSSVTYIHWYQQKPGSSPKSWIYATSNLASGIPARFSGSGSGTDFTLTISSLEPEDFAVYYCQHWSSKPPTFGQGTKLEIK | 2.64
P1AE4137, Fab derived from P1AE2166 (Fab, V domains shown) VH: EVQLLESGGGLVQPGGSLRLSCAASGFTFTDYYMNWVRQAPGKGLEWLGFIGNKANGYTTEYSASVKGRFTISRDKSKNTLYLQMNSLRAEDTATYYCTRDRGLRFYFDYWGQGTTVTVSS VL: EIVLTQSPATLSLSPGERATLSCRASSSVTYIHWYQQKPGSSPKSWIYATSNLASGIPARFSGSGSGTDFTLTISSLEPEDFAVYYCQHWSSKPPTFGQGTKLEIK | 11.3
P1AE4141, Fab derived from P1AE2179 (Fab, V domains shown) VH: EVQLLESGGGLVQPGGSLRLSCAASGFTFTDYYMNWVRQAPGKGLEWVGFIGNKANGYTTEYSASVKGRFTISRDKSKNTLYLQMNSLRAEDTAVYYCARDRGLRFYFDYWGQGTTVTVSS VL: QTVLTQSPATLSLSPGERATLSCRASSSVTYIHWYQQKPGSSPKSWIYATSNLASGIPARFSGSGSGTDYTLTISSLEPEDFAVYYCQHWSSKPPTFGQGTKLEIK | 1.83
P1AE4139, Fab derived from P1AE2176 (Fab, V domains shown) VH: EVQLLESGGGLVQPGGSLRLSCAASGFTFTDYYMNWVRQAPGKGLEWVGFIGNKANGYTTEYSASVKGRFTISRDNSKNTLYLQMNSLRAEDTAVYYCTRDRGLRFYFDYWGQGTTVTVSS VL: EIVLTQSPATLSLSPGERATLSCRASSSVTYIHWYQQKPGSSPKSWIYATSNLASGIPARFSGSGSGTDFTLTISSLEPEDFAVYYCQHWSSKPPTFGQGTKLEIK | 7.58
P1AE0289, CEA (A5B7) Fab (parental murine antibody) (Fab, V domains shown) VH: EVKLVESGGGLVQPGGSLRLSCATSGFTFTDYYMNWVRQPPGKALEWLGFIGNKANGYTTEYSASVKGRFTISRDKSQSILYLQMNTLRAEDSATYYCTRDRGLRFYFDYWGQGTTLTVSS VL: QTVLSQSPAILSASPGEKVTMTCRASSSVTYIHWYQQKPGSSPKSWIYATSNLASGVPARFSGSGSGTSYSLTISRVEAEDAATYYCQHWSSKPPTFGGGTKLEIK | 0.559
